The results in this text go back to article PMC5724010 (The Journal of Biological Chemistry, 2017).

For data set [1], the system named is CCCCCCC(=O)Oc1ccc2c(C)cc(=O)oc2c1. Nature of the data set: purified protein, by the assay type.
Experimental: (§1) In detail, FplA was used at 1 nM in the reaction, and substrate (50 mM stock in 100% DMSO) dilutions (0–200 μM) and reactions were carried out in reaction buffer (50 mM Tris, pH 8.5, 50 mM NaCl, 0.025% BOG). All samples, including controls, contained equal concentrations of DMSO (0.4%). Reactions were run at 26 °C for 30 min with 3 s of shaking between continuous fluorescent monitoring (excitation = 360 nm, emission = 449 nm) every 2 min on a SpectraMax M5^e plate reader. Relative fluorescence units measured upon cleavage of substrate ester bonds and release of the acyl chain were converted to the concentration of product (4-methylumbeliferone; 4-Mu) created by establishing a standard curve using pure 4-Mu (Sigma-Aldrich).
(§2) The steady-state kinetic parameters for each substrate were determined using GraphPad Prism version 6 (GraphPad Software, La Jolla, CA) by fitting the initial rate data (n = 2) to the Michaelis–Menten equation, (Eq. 1) v=Vmax⁡[S]/(Km+[S]) to obtain the values reported in Fig. 2 and supplemental Fig. S3.
Data set [2] concerns CCCC(=O)Oc1ccc2c(C)cc(=O)oc2c1. Briefly: purified protein, by the assay type. As to conditions: other: Fig. 4C/D, substrate of FplA(20–431), 1 nM enzyme, pH 8.5, 26 °C.
Experimental: as §1, §2
Data set [3] deals with CCCCCCCCCCCCCCCC(=O)Oc1ccc2c(C)cc(=O)oc2c1. Briefly: purified protein, by the assay type. As to conditions: other: Fig. 4C/D, substrate of FplA(20–431), 1 nM enzyme, pH 8.5, 26 °C.
Experimental: as §1, §2
The target of another data set is FplA(20–431) (Fusobacterium nucleatum subsp. nucleatum, UniProt Q8R6F6). The format is biochemical, F. nucleatum 25586.
The mark [4] stands for this setting: other: Fig. 4E, 4-MuH as substrate, construct FplA20-431, pH 8.5, 26.0 °C.
Setting [5] is: other: Fig. 4E, 4-MuH as substrate, construct FplA20-350, pH 8.5, 26.0 °C.
Setting [6] is: other: Fig. 4E, 4-MuH as substrate, construct FplA60-431, pH 8.5, 26.0 °C.
[7] abbreviates: other: Fig. 4E, 4-MuH as substrate, construct FplA60-350, pH 8.5, 26.0 °C.

Sequence of FplA(20–431) (Q8R6F6 20-431 limits assumed): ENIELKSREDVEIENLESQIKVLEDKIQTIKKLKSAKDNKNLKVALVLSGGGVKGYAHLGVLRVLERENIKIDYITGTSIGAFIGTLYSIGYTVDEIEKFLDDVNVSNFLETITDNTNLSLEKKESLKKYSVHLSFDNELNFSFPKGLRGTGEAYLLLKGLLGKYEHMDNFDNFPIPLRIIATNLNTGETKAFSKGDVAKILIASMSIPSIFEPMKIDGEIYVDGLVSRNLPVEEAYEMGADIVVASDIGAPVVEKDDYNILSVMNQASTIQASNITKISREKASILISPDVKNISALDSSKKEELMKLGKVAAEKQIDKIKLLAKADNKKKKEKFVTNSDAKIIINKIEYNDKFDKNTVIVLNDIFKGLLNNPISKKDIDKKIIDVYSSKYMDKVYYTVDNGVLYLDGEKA

Usually Km stands for the concentration of substrate that gives half-maximal velocity. The term kcat denotes the maximal rate divided by the concentration of active sites. As usually defined, the kcat/Km is the turnover number divided by the Michaelis constant. Turning to “FplA(20–431) (Fusobacterium nucleatum subsp. nucleatum ATCC 25586)”, the Km turned out to be 19 µM in data set [1] (other: Fig. 4C/D, substrate of FplA(20–431), 1 nM enzyme, pH 8.5, 26 °C); 19.6 ± 5.0 µM in data set [1] (setting [4]); 500 µM in data set [2]; 23 µM in data set [3]. Besides, the kcat in data set [1] (setting [4]) came to 55 ± 4.0 s⁻¹. The specificity constant (kcat/Km) in data set [1] (setting [4]) came to 2.8e+06 ± 700000 M⁻¹ s⁻¹.
“FplA20-350 (Fusobacterium nucleatum subsp. nucleatum ATCC 25586)”: in data set [1] (setting [5]), the Km was 23.5 ± 6.5 µM and the kcat is 75 ± 6.2 s⁻¹.
As for `CCCCC/C=C\C/C=C\C/C=C\C/C=C\CCCC(=O)C(F)(F)F` [ATFMK, arachidonyl trifluoromethyl ketone], the “Inhibition of FplA, potency in words” value on FplA(20–431) is on record as “potent inhibitors”.
For the compound “FplA60-431 (Fusobacterium nucleatum subsp. nucleatum ATCC 25586)”, in data set [1] (setting [6]), the Km is 18.2 ± 7.4 µM, the kcat worked out at 2.8 ± 0.3 s⁻¹ and the kcat/Km amounted to 150000 ± 60000 M⁻¹ s⁻¹.
For the compound “FplA60-350 (Fusobacterium nucleatum subsp. nucleatum ATCC 25586)”, in data set [1] (setting [7]), the Km was found to be 17.7 ± 8.4 µM, the kcat was found to be 2.1 ± 0.3 s⁻¹ and the kcat/Km is 120000 ± 60000 M⁻¹ s⁻¹.
